This passage reports Kd, fold decrease of the binding affinity against the unmodified H3 tail and fold increase of the binding affinity against H3K4me3 alone results from PMC11077763.

This assay addresses murine TRIM66 PHD-Bromodomain (a.a. 996-1,185) (mouse) (UniProt Q924W6). Description: ITC; 800 uM to 2.4 mM peptide in the syringe injected into 30-50 uM mTRIM66 PHD-Bromodomain in the cell; 25°C; 20 mM Tris pH 7.5, 100 mM NaCl; single-site binding model; triplicate.

In general, Kd refers to the concentration at which binding is half-saturated. Low readings indicate a tighter complex, high ones a looser complex.

UniProt Q924W6, sequence (Q924W6 996-1185): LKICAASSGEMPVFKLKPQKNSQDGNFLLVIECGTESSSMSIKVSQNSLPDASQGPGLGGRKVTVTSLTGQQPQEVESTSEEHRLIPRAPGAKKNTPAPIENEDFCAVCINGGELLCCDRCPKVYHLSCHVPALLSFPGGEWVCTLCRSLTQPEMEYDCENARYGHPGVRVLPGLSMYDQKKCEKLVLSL

Substance “H3 (1-30) K9me3+K18Ac (from UniProt P68431 2-31) (peptide)” returned a Kd of 1.3 µM.
In the case of “H3 (1-30) K4me3+K18Ac (from UniProt P68431 2-31) (peptide)”, the fold decrease of the binding affinity against the unmodified H3 tail is 7.1 fold and the fold increase of the binding affinity against H3K4me3 alone was 2.4 fold.
For the substance “H3 (1-30) K4me3 (from UniProt P68431 2-31) (peptide)”, the equilibrium dissociation constant (Kd) was 59.5 µM.
In turn, “H3 (1-30) unmodified (from UniProt P68431 2-31) (peptide)” came in with a Kd of 3.4 µM.
